The values that follow are results of earlier work, collected in patent publication US8071839B2, “Transgenic mouse comprising a polynucleotide encoding human or humanized C5aR and methods of production and use” (G2 Inflammation Pty Ltd, priority 2003, dated 2011).

For series [1], the target named is T1, C5aR (Homo sapiens, UniProt P21730).
T1 sequence (P21730 1-350): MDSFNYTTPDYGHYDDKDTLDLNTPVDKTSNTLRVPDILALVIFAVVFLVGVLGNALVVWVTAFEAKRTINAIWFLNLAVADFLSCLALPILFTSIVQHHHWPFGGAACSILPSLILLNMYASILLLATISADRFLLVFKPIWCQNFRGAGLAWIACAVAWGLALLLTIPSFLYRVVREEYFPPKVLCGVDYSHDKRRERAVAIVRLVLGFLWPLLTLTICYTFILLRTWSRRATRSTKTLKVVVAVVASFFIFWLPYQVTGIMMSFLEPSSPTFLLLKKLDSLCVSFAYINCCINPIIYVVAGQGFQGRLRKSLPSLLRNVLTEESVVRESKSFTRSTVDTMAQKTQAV

Series [2] concerns the target T1, C5aR. The conditions noted are these: read-out: Kd of C5aR for C5a.

B1: murine C5a: mouse C5a, ligand that binds human C5aR (protein, UniProt P06684 679-755, looked up)
C5a anaphylatoxin: NLHLLRQKIEEQAAKYKHSVPKKCCYDGARVNFYETCEERVARVTIGPLCIRAFNECCTIANKIRKESPHKPVQLGR
modifications: C5a anaphylatoxin
In the case of B1, the “binding affinity for human C5aR” value in the series with C5aR [1] is “high affinity”.

B2: C5a: anaphylatoxin fragment of complement protein C5, natural ligand of C5aR (protein, UniProt P01031 678-751, looked up)
C5a anaphylatoxin: TLQKKIEEIAAKYKHSVVKKCCYDGACVNNDETCEQRAARISLGPRCIKAFTECCVVASQLRANISHKDMQLGR
modifications: C5a anaphylatoxin
notes: anaphylatoxin fragment of complement protein C5, natural ligand of C5aR
With B2, the dissociation constant (Kd) (in general, the equilibrium constant for the complex coming apart) with C5aR [2] was approximately 1 nM.
